Laboratory results from the supplement of paper PMC10126150.
± gives the standard deviation of the averaged measurements.

Tested on: ATP
Assay: switch fluorescence ratio, 500 uM ATP over buffer (Cy3 cluster intensity, sum of 5 cycles each) (fold (ratio)); higher = stronger signal-on switching upon ATP binding; sequences stand for … in TCGTCGGCAGCGTCAGATGTGTATAAGAGACAGTTTTTTTTTTTTTTTTTTTTTTTTT…TC
Settings: aptamer strand: ATP DNA aptamer (quencher-CACCTGGGGGAGTATTGCGGAGGAAGG + anchor), 100 nM annealed; ATP concentration: 500 uM
Procedure, shortened: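 Clusters carrying Cy3-labelled switching strands on a modified Illumina MiSeq flow-cell were annealed to 100 nM quencher-labelled ATP aptamer and imaged in selection buffer. They were imaged again after 15 min with 500 uM ATP at 22 °C, over five buffer/ATP cycles with NaOH stripping and re-annealing in between. For each cluster, the fluorescence ratio is the summed Cy3 intensity of the target cycles divided by that of the buffer cycles, averaged per switch-domain sequence. Clusters outside 100-1000 RFU were left out.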
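Note: ATP exposure 15 min at 22 °C before imaging.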

TTACTTTATT and TGGGGACCCT are within error of each other in switch fluorescence ratio: 1.05 ± 0.053 for the first, 0.991 ± 0.014 for the second.

GGTGGGTCGT and CAAAGGGGTG are within error of each other in switch fluorescence ratio: 1.014 ± 0.0095 for the first, 1.03 ± 0.044 for the second.

AGCTGGAGGT and ATGGGCAGTC are within error of each other in switch fluorescence ratio: 0.992 ± 0.026 for the first, 1.21 ± 0.41 for the second.

TTCAGTTTAG and TTAATGGTTA are within error of each other in switch fluorescence ratio: 1 ± 0.031 for the first, 1.02 ± 0.029 for the second.

AAGGCGCGGG and TTGGGAGGAG are within error of each other in switch fluorescence ratio: 0.9891 ± 0.0081 for the first, 1.01 ± 0.025 for the second.

TCGGAGTTAG and GAGGGGATAG are within error of each other in switch fluorescence ratio: 1.04 ± 0.022 for the first, 1.03 ± 0.046 for the second.

AATTCTGAGA and GGGGTACGCG are within error of each other in switch fluorescence ratio: 1.02 ± 0.048 for the first, 0.984 ± 0.024 for the second.

TTGCTGTCGG and TTGGGGTT are within error of each other in switch fluorescence ratio: 0.985 ± 0.038 for the first, 0.9662 ± 0.0019 for the second.

AAGAGGCTAA and TAAGGCGGTA are within error of each other in switch fluorescence ratio: 1 ± 0.036 for the first, 0.963 ± 0.035 for the second.

GGGCGGGTTG and CGGGTCGTGG are within error of each other in switch fluorescence ratio: 1 ± 0.0036 for the first, 0.996 ± 0.024 for the second.

Compared with GTTGGAGTTT, CTATTTAGTC is lower in switch fluorescence ratio: 0.975 ± 0.016 for the first, 0.9496 ± 0.0052 for the second.

AGTTTTTAGG and GGGGTGTAGA are within error of each other in switch fluorescence ratio: 0.99 ± 0.024 for the first, 1.02 ± 0.03 for the second.

AAAAACGGTG and AGAGTCTGGT are within error of each other in switch fluorescence ratio: 1.05 ± 0.084 for the first, 0.965 ± 0.03 for the second.

Going from TTATTCATGT to GCGACAAAAT, the switch fluorescence ratio rises from 0.984 ± 0.011 to 1.11 ± 0.047.

TTTTAGTT and CGGGCGCTGA are within error of each other in switch fluorescence ratio: 0.993 ± 0.039 for the first, 0.9837 ± 0.004 for the second.

First: CAATAATTTG
Second: ATAAGCTTGC
The switch fluorescence ratio of the first is lower: 0.99184 ± 0.00043 for the first, 1.128 ± 0.0064 for the second.

Compared with GGGATGTTAT, ATTTTAATGA is lower in switch fluorescence ratio: 1.03 ± 0.014 for the first, 0.934 ± 0.028 for the second.

AGTAATGGG and TAAGTGCAAG are within error of each other in switch fluorescence ratio: 0.97 ± 0.054 for the first, 1.01 ± 0.033 for the second.

ATTGCGGGGA and GGTCATGGGA are within error of each other in switch fluorescence ratio: 0.9848 ± 0.0072 for the first, 0.99 ± 0.017 for the second.

Compared with TTGTGTC, CGGTCGAGGA is lower in switch fluorescence ratio: 1.06 ± 0.023 for the first, 0.988 ± 0.021 for the second.

Going from CCGCGCTGCC to CGTAAAGTAG, the switch fluorescence ratio falls from 2.71 ± 0.8 to 1.01 ± 0.022.

TAGCTGGGGC and AGTTCGTAAA are the same in switch fluorescence ratio: 1.02 ± 0.037 for the first, 1.02 ± 0.029 for the second.

GCCGGTGTTT and CTTGAAAAGC are within error of each other in switch fluorescence ratio: 1.02 ± 0.036 for the first, 1.05 ± 0.021 for the second.

CCTTAAGTGT and ATGGTTTCTT are within error of each other in switch fluorescence ratio: 1.04 ± 0.041 for the first, 1 ± 0.034 for the second.

AGGATTGGTG and AGGGAGGGTA are within error of each other in switch fluorescence ratio: 0.999 ± 0.052 for the first, 0.9889 ± 0.0098 for the second.

TTGTTATTTT and TTGGATAGTT are within error of each other in switch fluorescence ratio: 1 ± 0.03 for the first, 1.09 ± 0.16 for the second.

GGGAGGTTGT and GGTTGGAATG are within error of each other in switch fluorescence ratio: 0.966 ± 0.028 for the first, 1.08 ± 0.18 for the second.

CGGAGGTAGG and TATGATTCAG are within error of each other in switch fluorescence ratio: 1.01 ± 0.043 for the first, 0.98 ± 0.012 for the second.

TAGGGTATAT and GGCGCTTGTT are within error of each other in switch fluorescence ratio: 0.986 ± 0.015 for the first, 0.975 ± 0.034 for the second.

ATGGAAAAAG and AGAGACATGC are within error of each other in switch fluorescence ratio: 0.963 ± 0.046 for the first, 0.923 ± 0.085 for the second.

First: AGACACTGAC
Second: ATCTGATGGC
The switch fluorescence ratio of the first is higher: 1.45 ± 0.028 for the first, 0.957 ± 0.039 for the second.

CTTGTAGGTG and TCCAGAAAGG are within error of each other in switch fluorescence ratio: 1.36 ± 0.48 for the first, 1.014 ± 0.0031 for the second.

GTGTACCGGA and TATAGATGAC are within error of each other in switch fluorescence ratio: 0.9813 ± 0.0017 for the first, 0.989 ± 0.017 for the second.

CAGGGTTTGG and ACAAAAGACT are within error of each other in switch fluorescence ratio: 1.01 ± 0.023 for the first, 1.19 ± 0.25 for the second.

First: AAAAACACTT
Second: GGGTTGGTCG
The switch fluorescence ratio of the first is higher: 1.04 ± 0.022 for the first, 0.955 ± 0.016 for the second.

Going from TTCGCGATGT to GGTTTAGCGG, the switch fluorescence ratio falls from 1.13 ± 0.11 to 0.9809 ± 0.0033.

Going from TATTGAGGAG to GCGGGGCTTA, the switch fluorescence ratio falls from 1.01 ± 0.011 to 0.98878 ± 0.00093.

First: TAAGTTAATA
Second: CTCAGATGAT
The switch fluorescence ratio of the first is higher: 1.02 ± 0.016 for the first, 0.988 ± 0.013 for the second.

TGGTACCACT and ATTCGGGACC are within error of each other in switch fluorescence ratio: 0.996 ± 0.014 for the first, 0.973 ± 0.019 for the second.

TTAGTGTGTG and CGTTTAGTGG are within error of each other in switch fluorescence ratio: 0.994 ± 0.011 for the first, 0.9781 ± 0.0089 for the second.

First: AACGGAGCTT
Second: CAGGGATGTG
The switch fluorescence ratio of the first is higher: 1.47 ± 0.25 for the first, 1.03 ± 0.013 for the second.

First: GCCCATGAGT
Second: TTTTCCGGGC
The switch fluorescence ratio of the first is lower: 1.01 ± 0.011 for the first, 1.1 ± 0.014 for the second.

AATCAGTGGA and CTTATCGGGG are within error of each other in switch fluorescence ratio: 0.974 ± 0.038 for the first, 1 ± 0.013 for the second.

CCTAGTTGGC and CTGGCGAGGG are within error of each other in switch fluorescence ratio: 1.03 ± 0.083 for the first, 1.01 ± 0.026 for the second.

GGACTGTGGG and TAATAGAATT are within error of each other in switch fluorescence ratio: 1.02 ± 0.044 for the first, 1 ± 0.014 for the second.

Going from GATGAAAGAT to ACGTTATGCT, the switch fluorescence ratio rises from 1.003 ± 0.0085 to 1.17 ± 0.081.

ACTGGATTGG and GTGTAATGGT are within error of each other in switch fluorescence ratio: 1.01 ± 0.042 for the first, 1.03 ± 0.021 for the second.

TGTCGTGTAG and TTTATTGCAT are within error of each other in switch fluorescence ratio: 1.01 ± 0.0094 for the first, 1.018 ± 0.0082 for the second.

Going from TTAAAACTCA to AATATAGGGG, the switch fluorescence ratio falls from 1.04 ± 0.018 to 0.996 ± 0.017.

First: CTCCGGGCGA
Second: CGCTGCTCGC
The switch fluorescence ratio of the first is higher: 4.47 ± 1 for the first, 1.3253 ± 0.00064 for the second.

AGACTTTGAG and AAAAGCGTGG are within error of each other in switch fluorescence ratio: 1.03 ± 0.061 for the first, 1 ± 0.019 for the second.

Going from AGGTAAGTGC to GCGGAAAAAG, the switch fluorescence ratio falls from 1.025 ± 0.0017 to 0.957 ± 0.011.

TTTGTAAATT and CTGAAGTCTG are within error of each other in switch fluorescence ratio: 1 ± 0.018 for the first, 1.019 ± 0.0084 for the second.

Going from GCATAATTTT to GCGATGGGTC, the switch fluorescence ratio rises from 1.01 ± 0.028 to 1.06 ± 0.0091.

CCCTAGGATT and CACAGTGAAG are within error of each other in switch fluorescence ratio: 1.01 ± 0.03 for the first, 0.985 ± 0.051 for the second.

GCGAGCAATG and GGTCAGAAGG are within error of each other in switch fluorescence ratio: 1.03 ± 0.027 for the first, 0.996 ± 0.026 for the second.

GCGAAAAACG and GGAAAAAGGC are within error of each other in switch fluorescence ratio: 1.03 ± 0.056 for the first, 0.9838 ± 0.0058 for the second.

TGGCATTGGT and GGATTGAATG are within error of each other in switch fluorescence ratio: 0.983 ± 0.014 for the first, 0.972 ± 0.025 for the second.

GGGCGTTCTG and CCGGGGTAGA are within error of each other in switch fluorescence ratio: 1.04 ± 0.023 for the first, 1.02 ± 0.023 for the second.

GTCTTATATT and GAAGCGCGTC are within error of each other in switch fluorescence ratio: 1.01 ± 0.06 for the first, 0.998 ± 0.049 for the second.

CGATTTACTT and GATTTGTAGG are within error of each other in switch fluorescence ratio: 1.02 ± 0.04 for the first, 1.01 ± 0.0069 for the second.

TGCGTAGTTA and TTGTAATAGG are within error of each other in switch fluorescence ratio: 0.987 ± 0.012 for the first, 1.27 ± 0.4 for the second.

TAGGCGGATA and CGCTGTCGGA are the same in switch fluorescence ratio: 1.008 ± 0.0023 for the first, 1.014 ± 0.0078 for the second.

CTGGGTATTT and ATTGATTTTT are within error of each other in switch fluorescence ratio: 0.999 ± 0.04 for the first, 1.01 ± 0.019 for the second.

TAGTTGATTC and GAGGCGGAGG are within error of each other in switch fluorescence ratio: 1.01 ± 0.067 for the first, 1 ± 0.028 for the second.

First: ATACTATATT
Second: TAGCGAAACT
The switch fluorescence ratio of the first is lower: 1.05 ± 0.017 for the first, 1.14 ± 0.032 for the second.

AGAACTCTTT and TAAGGTTACT are within error of each other in switch fluorescence ratio: 1.02 ± 0.022 for the first, 0.977 ± 0.035 for the second.

TTTGGGGTCA and GTTAGTGTGC are within error of each other in switch fluorescence ratio: 1 ± 0.016 for the first, 0.984 ± 0.013 for the second.

GTGTTCTAAA and TTTTTATTGT are within error of each other in switch fluorescence ratio: 1.03 ± 0.041 for the first, 0.997 ± 0.035 for the second.

ATTAAATATC and ACAGACTTGT are within error of each other in switch fluorescence ratio: 1.03 ± 0.024 for the first, 1.01 ± 0.037 for the second.

TTTAAACGGA and TCTTTTAAGT are within error of each other in switch fluorescence ratio: 1.05 ± 0.081 for the first, 0.97 ± 0.033 for the second.

TTGTTGAGGG and TTTAATGAGT are within error of each other in switch fluorescence ratio: 1.014 ± 0.0042 for the first, 1.02 ± 0.024 for the second.

ACAGGTTGCG and TACTATTTGT are within error of each other in switch fluorescence ratio: 0.9971 ± 0.0082 for the first, 1.04 ± 0.063 for the second.

ATGTCTTGGC and GTATGGAGCG are within error of each other in switch fluorescence ratio: 0.998 ± 0.03 for the first, 0.981 ± 0.019 for the second.

First: GTGATTGGCT
Second: TCGATGGCAG
The switch fluorescence ratio of the first is lower: 0.978 ± 0.016 for the first, 1.059 ± 0.0033 for the second.

ATGGGGGCCA and GCTTTGGAAG are within error of each other in switch fluorescence ratio: 0.974 ± 0.019 for the first, 0.985 ± 0.034 for the second.

Compared with GGTCCTCGGG, CGAGAGACCG is lower in switch fluorescence ratio: 1.03 ± 0.03 for the first, 0.951 ± 0.013 for the second.

Compared with TTAAAAAGTA, CCGTTCGACA is higher in switch fluorescence ratio: 1.03 ± 0.02 for the first, 1.37 ± 0.058 for the second.

For CTCTATTGTG, the switch fluorescence ratio was 0.964 ± 0.027.
